From patent publication US20160228502A1 (UNIVERSITY OF MARYLAND BALTIMORE, published 2016)
Where no end group is shown, it is not given here.

B1: junctophilin-1 (JPH1), native, rabbit skeletal muscle SR vesicles (other, UniProt Q9GKY8 1-662, looked up)
chain: MTGGRFDFDDGGTYCGGWEEGKAHGHGICTGPKGQGEYSGSWSHGFEVVGGYTWPSGNTYQGYWAQGKRHGLGVETKGKWMYRGEWSHGFKGRYGVRQSLCTPARYEGTWSNGLQDGYGVETYGDGGTYQGQWAGGMRHGYGVRQSVPYGMATVIRSPLRTSLASLRSEQSNGSVLHDAAAAADTPTGTRGGFVLNFHADAELAGKKKGGLFRRGSLLGSMKLRKSESKSSISSKRSSVRSDAAMSRISSSDANSTISFGDVDCDFCPVEDHVDATTTETYMGEWKNDKRNGFGISERSNGMKYEGEWANNKRHGYGCTVFPDGSKEEGKYKNNILVRGIRKQLIPIRNTKTREKVDRAIEGAQRAAAMARTKVEIANSRTAHARAKADAADQAALAARQECDIARAVARELSPDFYQPGPDYIKQRLQEGVDAKENPEEKVPAKPPTPKESPHFYRKGTTPPGSPEASPKYSRSPQPSPPKPAKKQNPSSGARLNQDKRGVAEEQVTAIVNKPLTSKAPTKEVGAAVSQSKYSGRHHVPNPSNGELHSQYHGYYVKLHAPQHPPVDAEDDDRSSPSSSALVHKPSPNKWSPPKSVTKPVAKESKAEPKAKKSELAIPKNPASNDSCPSMEREANSGPNSVMIVLVMLLNIGLAILFVHFLT
B2: sarco(endo)plasmic reticulum Ca^2+-ATPase 1 (SERCA1) (enzyme)
chain: MEAAHSKSTEECLAYFGVSETTGLTPDQVKRHLEKYGHNELPAEEGKSLWELVIEQFEDLLVRILLLAACISFVLAWFEEGEETITAFVEPFVILLILIANAIVGVWQERNAENAIEALKEYEPEMGKVYRADRKSVQRIKARDIVPGDIVEVAVGDKVPADIRILSIKSTTLRVDQSILTGESVSVIKHTEPVPDPRAVNQDKKNMLFSGTNIAAGKALGIVATTGVSTEIGKIRDQMAATEQDKTPLQQKLDEFGEQLSKVISLICVAVWLINIGHFNDPVHGGSWIRGAIYYFKIAVALAVAAIPEGLPAVITTCLALGTRRMAKKNAIVRSLPSVETLGCTSVICSDKTGTLTTNQMSVCKMFIIDKVDGDFCSLNEFSITGSTYAPEGEVLKNDKPIRSGQFDGLVELATICALCNDSSLDFNETKGVYEKVGEATETALTTLVEKMNVFNTEVRNLSKVERANACNSVIRQLMKKEFTLEFSRDRKSMSVYCSPAKSSRAAVGNKMFVKGAPEGVIDRCNYVRVGTTRVPMTGPVKEKILSVIKEWGTGRDTLRCLALATRDTPPKREEMVLDDSSRFMEYETDLTFVGVVGMLDPPRKEVMGSIQLCRDAGIRVIMITGDNKGTAIAICRRIGIFGENEEVADRAYTGREFDDLPLAEQREACRRACCFARVEPSHKSKIVEYLQSYDEITAMTGDGVNDAPALKKAEIGIAMGSGTAVAKTASEMVLADDNFSTIVAAVEEGRAIYNNMKQFIRYLISSNVGEVVCIFLTAALGLPEALIPVQLLWVNLVTDGLPATALGFNPPDLDIMDRPPRSPKEPLISGWLFFRYMAIGGYVGAATVGAAAWWFMYAEDGPGVTYHQLTHFMQCTEDHPHFEGLDCEIFEAPEPMTMALSVLVTIEMCNALNSLSENQSLMRMPPWVNIWLLGSICLSMSLHFLILYVDPLPMIFKLKALDLTQWLMVLKISLPVIGLDEILKFIARNYLEDPEDERRK
notes: One entry covers native rabbit SERCA1 (SR vesicles) and untagged recombinant rabbit SERCA1 (COS7/HEK293 extracts and microsomes); The assay field of each row says which source was used; also called SERCA1-pcDNA3.1

Legend:
[1] = target: B2; assay: cell-based or functional assay
[2] = target: B2; assay: coIP with antibodies to JPH1 from rabbit SR vesicles
Method: CoIP experiments were performed as described in (60), with preparations of SR vesicles isolated by the method of Eletr and Inesi (61, 62) from rabbit skeletal muscle from the back and hind limb (Pel-Freez, Rogers, Ark.), or from crude membrane extracts of COS7 cells prepared as described (59, 63). For the latter, COS7 cells were harvested in PBS at 48 h following transfection, collected by centrifugation, frozen in liquid N₂ and stored at −80° C. until needed. Briefly, pellets were homogenized with 30 strokes of a glass Dounce homogenizer in resuspension buffer (0.25 M sucrose, 10 mM Tris-HCl, pH 7.5, 20 mM CaCl₂, 3 mM 2-mercaptoethanol, 150 mM KCl), and solubilized with an equal volume of lysis buffer (40 mM HEPES-NaOH, pH 7.5, 300 mM NaCl, 2 mM EDTA, 1% Tween 20). SR vesicles were prepared for coIP by the same methods for resuspension and solubilization. The muscle and cell extracts were pre-cleared with 50 μL uncoated Dynabeads. The pre-cleared extracts were mixed with antibody-coated Dynabeads (5 ug antibody/50 uL beads) and incubated at 4° C. for 4 h. […] Proteins in the samples were separated by SDS-PAGE and analyzed via immunoblot as described (64).
The interaction between SERCA1 and sAnk1 was first analyzed by co-immunoprecipitation (coIP), performed with SR vesicles prepared from rabbit skeletal muscle (see Methods). […]

[3] = target: Maltose Binding Protein (MBP) alone (UniProt P0AEX9 27-392 = MBP); assay: blot overlay on rabbit SR vesicle proteins
Method: A FLAG empty vector was used as controls. […] 7B. Amylose resin bound to bacterially expressed sAnk1₂₉₋₁₅₅-MBP fusion protein was incubated with COS7 extracts transfected to express SERCA1. MBP protein alone was used as a control. […] Ponceau staining was used as a loading control (top panel). 7C. SR vesicle preparations were used for blot overlay assays. Blots were first overlaid with sAnk1₂₉₋₁₅₅-MBP or MBP protein alone, followed by incubation with antibodies to MBP. […] Ponceau staining was used as a loading control (right panel).
The blot overlay assay was performed as described (50, 69) with minor modifications. […] The generation and purification of these fusion proteins were as described (51). A separate section of the membrane was reserved to identify SERCA1. Blots were washed extensively with overlay buffer and once with TBS, pH 7.4, plus 0.5% Tween-20 (TBST). The blots were blocked in TBST+4% non-fat dry milk for 4 h at 25° C. and probed with antibodies to MBP (overlay portion) and SERCA1 (non-overlay portion). Immunoblots were completed as described above.

In the case of {FLAG tag}-MERSTRELCLNFTVVLITVILIWLLVRSYQY (other, rabbit, UniProt P42532 1-31, looked up, not shown: small tags and cut ends, not fully specified) [N-terminal FLAG-tagged sarcolipin (NF-SLN)], the “ΔKCa2+ relative to SERCA1 Alone” value [1] is reported as -0.37 pCa^2+ units.

B1: no binding [2].

B2: no binding (tested: 3 µg/mL) [3].
